Laboratory results taken from a protein production outcome set (Wang et al. 2014).

Assay: label from the status in PepcDB records

Row | Sequence | protein production
1 | RSFGLIIPDLENTSYARLAKLIEQNSRKAGYQILIGCSDDDPETEKKVAEALISRRIDALFVASGMPSANEYYLKLQNSGTPVIALDRPMDDEHFCCVISEDFDAAFELTESVLSPEIKTIGLIGALQDLQVSKERELGFRSACQKDDTAMTVGYGLHFSREEGKKVLDKWVQADSLPDAIVTTSYTLLEGVLDVMLEKPELMSQVRLATFGDNRLLDFLPVKINSLPQQFELIADSAMELALNASAKRYKPGVELIPRKIVKRQ | failed
2 | MALPPILRDRLRLPVIASPLFIISNPDLVIAQCKAGIVGSFPSLNARPLSQLDEWLARITEELAAWDKANPDMPSAPFAVNQIVHKTNNRLEDDIAMCVKYKVPLVITSLGAREDVNQAIHSYGGITLHDVITDRFARKAIEKGADGLIPVAAGAGGHAGTLSPFALIQEIRQWFDGPVALSGSIASGRSILAAQAMGADLAYVGSAFIATKEANAVEGYKQMIVDSKADDILYSNLFTGVHGNYLRPSVIKAGLDPENLPESDPSKMNFGSGGNQDAKAWRDIWGCGQGIGAIDNVLTAGELVAKFAAEYEQAKAELAAKTALTAGKHLAFAAE | failed
3 | MKIAIFRTSGVIAPFVIDGYITGFREAGHEVWGIDLTTEGLDFTKLRSFQPDFVLAYGYNGFCKSPNGYALRELGIPLVSLHYDCPYLARNDGLSDEINNFPEYYYEFVWDDSFLELLRNDGTENCDHILLATDPTWFHPIALDSPCIESSVCFVGGVSAHVEQNCVGIELVDKFIDEVIYSKLHNMEVPTFEICKQFFSTPEYRAVHQVYTTEPASFWQMIYYKIHGKGSTVMRKYILDSIEGVDLHIYGGGNGWDKPNAIFHEKVPYGTELSKAFQQYALNLNISSLQLEKAINNRPFDAYASKAFMLNDYRDDMIRAFPAHWEEITFRNLDEFAEKGEYFLTHAQERRELVADLYDHTLRHHTYRHRADQIVEKLAAINFLNRPQQPKTQTSRSILAIDEDNYADYCKDLNTCPVCGGTEFNLKFSFLGHEDYKSTFDQCMDCQAVFLNPCPTDEYLTKFYNEIYYSPQHRQKMGWDPNLDTPNPNSFFLHQRRMDFVEKYVPEELKFPRGKLLDIGCSTGAFLWEASLRYWDVCGIEISDKAAEVAREKYGLAVTTGTLLESSFDDETFDVVTAWDVLEHIANPAPFLTILRRILKQGGLILLNTPNINSADAAYAGEQWRHLDAPLHPVLYDFISIRILLKKYGFQCLEVSSGDEYHGQMKIAARKA | failed
4 | MRNMNIYDSLLGAVHSEYDVLMLIKKSERGEVSLVRHRDSGTRYIFRHFYGNSEVYQKLLNVSCPNLPQIMEVGEKDGKTALLEEYVQGDTLSEILEGGLLTIAESKQIARQLCSALWVFHSMGVVHRDVKPDNVIIRGKEAVLIDFDASRIYKSTIQEDTQILGTTGFAAPEQYGLSQSDGRADIYALGVLLNIMLTGEHPSRKLAGGRMGRIVQRCTMVNPSKRYKNILHLLEVL | failed
5 | MGHHHHHHSHMSYKPNLAAHMPAAALNAAGSVHSPSTSMATSSQYRQLLSDYGPPSLGYTQGTGNSQVPQSKYAELLAIIEELGKEIRPTYAGSKSAMERLKRGIIHARGLVRECLAETERNARS | failed
6 | MSIAIRIATIGALCAASAALSGCGSVGAASGALAGAATGLVTANPAVGVGVGIAVQAATDEAVNRTMKQLHQNQQDAIAKAAGSLAVGEVKPWKVKNTLPLENGEGEVRVTRAYSTALALCKEFAFSVKDGDKADWYFANACQQGTHWKWASAEPAVDRWGNLQ | failed
7 | MQTVPSSDGTPIAFERSGSGPPVVLVGGALSTRAGGAPLAERLAPHFTVICYDRRGRGDSGDTPPYAVEREIEDLAAIIDAAGGAAFVFGMSSGAGLSLLAAASGLPITRLAVFEPPYAVDDSRPPVPPDYQTRLDALLAEGRRGDAVTYFMTEGVGVPPDLVAQMQQAPMWPGMEAVAHTLPYDHAVMGDNTIPTARFASISIPTLVMDGGASPAWIRHTAQELADTIPNARYVTLENQTHTVAPDAIAPVLVEFFTR | not failed
8 | LRQQRLIWVVLALSCVIVISLLMLWRYTRFRSEAEAALIAETGFRRAMENSMSTGMRVLDMEGRIAYVNPAFCRMIGWNEADLIGRSPPFPYWVPGRHDQHQHTLEVLTSGKTPSSGLEVEAQRRDGSRFTARMYVSPLLDPNGDQIGWMTSMTDIT | failed
9 | SDIVRKTIDNDISTKWRLKTLSEKLNLSEVTIRKKLENENTNFYRILLDARMQKAARLVLDSDTHINKVSYAVGMSSVSYFIKLFSDYYGLTPKQFHLKYKHRNTGEKAAFMLYN | failed
10 | MTDSTTELTPAAPVSWPDGKTCAVAFTFDVDAESPLLTTDPAFADRMGTMSHQAYGPLVGVPRLLGILDEFNVPGTFFVPGYTAHRHPEPIRSIARAGHEIAHHGYLHESLVGADEDTERKILTRGIEALEEVAGVHPVGYRAPMWEMNWHTPKLLAEFGFLYDSTLMDSDHPYELAVGDGSLVELPVSWALDDWQQYCFVPDFSGTGLIETPAKAIELWRAELNAMRDIGGAWVLTNHPFLSGRPGRAAALREFIAEVCAMDDVWVAGMSQIAEHVRAQKLTPRTLTRPELTPVAE | not failed
11 | MIGQTDQNIVITYSANIQQVKILYVDEKGSEVSSMLLKGNTDQTVNVSYSVPDHWIAISGQDSPLQYTFKAKDNKNIVIRIGHKLEDQENDIHKIIRNVNIVNPDGSVAKVSQTAIFTRVHQRDEVTGEEVYGNWDKISQDFNAIDIPKIFGYTATSSVGKMTVTPDSQSENITITYTADIQNNKIVIIDDESHGSQINTVGFTGKTGKSIAWQVTIPENYDLAAGGKISGNYTFNAVNQIPIEVHVRHKHVQDDESKSVTRTIVTNLPGLDKSEIVQTVTFSRIIDKDLVDGN | failed
12 | MSKLSIRNLTKIFGPHPEKALGLLEQGLGKEEIHRRTSHAVGVDRASFDVEEGEIVVVMGLSGSGKSTLVRCLNRLIEPTAGTVTVDGRDVTSMPVDELRRLRQRSFGMVFQNFALFPHRTVLQNAAFGLEAMGVPRAERERQAMVSLERVGLAEWAASRPAQLSGGMQQRVGLARALSLDPDILLMDEAFSALDPLIRRDMQDELLRLQDDLQKTIVFISHDLDEALKLGDRIVLMRDGAVVQIGTPEDILTNPADDYVARFVGEADVTKVLTAGSVMKRSEAVAVLGIDGPRTALRKMRRNAIATLFVLDERHRLVGLITADDAARLAAEGVRELGSIVRRDIATVPPEAPATELISLMADLPHPLAVVDERGRLAGVIVRGLLLGALAERGGVALEHHHHHH | not failed
13 | MKSLHRPDLYSWSTFNPARNIDFNGFAWIRPEGNILIDPVALSNHDWKHLESLGGVVWIVLTNSDHVRSAKEIADQTYTKIAGPVAEKENFPIYCDRWLSDGDELVPGLKVMELQGSKTPGELALLLEETTLITGDLVRAYRAGGLEILPDEKLMNKQKVVASVRRLAALEKVEAVLVGDGWSVFRDGRDRLKELVATLA | not failed
14 | MAGYKPVAIQTYPVLGEKITQDTLYWNNYKTPVQIKEFGAVSKVDFSPQLPYNYAVTASSRIHIYGRYSQEPVKTFSRFKDTAYCATFRQDGQLLVAGSEDGVVQLFDINGRAPLRQFEGHTKAVHTVDFTADNYHVVSGADDYTVKLWDIPNSKEILTFKEHSDYVRCGCASKLNPDLFVTGSYDHTVKIFDARTNKNVLCVEHGQPVESVLLFPSGGLLVSAGGRYVKVWDMLKGGQLLVSLKNHHKTVTCLCLSSSGQRLLSGSLDRKVKVYSTTSYKVVHSFDYAASILSLALSHQDETIVVGMTNGILSVKHRKSEAKKTSLPRRRRPAYRTFIKGKNYLKQRDDIMVSRPAKKHLEGYDKDLKSFRVSQALDRVLEPKCVIRTPEVTVSIIKELTRRGVLANALAGRDEKEVTRVLNFLIRNLSQPRFAPVLINAAEIIIDIYLPVIGQSSVVDKKFIVLQELVEKEIDYQRELLETLGMMDMLFATMTRNDSDPVPEHVPAELPEEKTESPTQPSDTDKNS | failed
15 | MMAPNQFSSGDVIADRRADYARMLAESGDYPAAAELMEQALELAPRWTAGWFRFGEYHEKAGETAKAVAAYEKVAELDAEGLFAAELKLAVLGAAETPEQPPSRYVEGLFDDYADRFETSLVEKLDYSVPQKLAELIGKAATGDAFDTIVDIGCGTGLLGIEIRSLAKRLEGFDISQNMLAKADEKSLYDHLGQADLSLDAEASGLFTPVLTQHRADLVAAADVMMYLGSLETVMPLVSALLKPSGFFAFSVEDAGDEQGFVLRESLRYAHSKSYVIDLLERSGFSPMEIRKTTIRKDAGKPLSGILFLARAKA | failed
16 | MARIDHVGLMVKDIDASIAFYQNVIGMTLKGRMTHTNGVMKLAFLGFENRDETELELIEGYNDNLPQEGKVHHFAVSTDDIEAEFDRVKGAGIKLMEDEITVLPNGFRYFFLFGPEGEMVEFFQRT | failed
17 | MSNTIIRSLCVVLFGIAAVPGIADAQSSAYTNSGAELFAGPAPDYPVVAQLPPGTAVDVFGCLSDYSWCDVALPGVRGWIDAQQLDYPYQGNYVPLLEYGAIIGVPVTGFAIGTYWDRYYRHRPWFHDRDRWEHRAEPRVGPGGMPPAYYGRPQPGWPAQREPRGAPPVQHDARPSATRGGWNGPNRAPAPQVAPAPARAPAPMPAPAPMPAPAPIPGAAGVRQPAPPPAQPAQPAPSGGAVQMMPPAHQGGGGYGGRPQGGGDGGGNHGGGGGRGRSDEFRR | failed
18 | MEILHFSPSSSISTIIHRPRRKIMALRDSIKTQMNLITTESVSSFRFCPCGRRHFIGAAMTSMPFLPISPSHASTSTEDLKRLRPPKPDWYEEFFAWSMNSEVESYEKEVSDYKMKLFDNLVGKAEKVLEIGIGTGPNFKYYTDIPNVSVIGIDPNAKMESYARKSATEAGLKPEEFTFVHALGESIPLEDASVDAVVGTLVLCSVTDVTQTLKEIKRILRPGGIYIFIEHVAAEDGTFLRLVQTVLDPLQQVVADGCHLTRHTGESILEARFNGGADVKKTSLSRLAYISSHVYGVAYN | failed
19 | MAFIESWAKRTWLVPPQMQLYVDYKIKVTEILTNYTSIEEIHSYSIDESFLDITESLNFFYPDIRNRYEQMNLITLDLQREILDKLGLYVTVGMGDNPLLAKLAMDNYAKHNQNMRALIRYLEHHHHHH | failed
20 | MSSVERYLSQLVKTEPQLETLKELYIGKKWHQLTEELLKLIHSGQVNRINLVELYDSFIREFESSLNPLALVRILVGIARKNYRDLNKALEFVDYATNSKAFISADEEASLFLKSETARLKLEGGNLSGVKQILEEVGVAMESTRDLDTVVHSSYHRVCAQYYKAVGPATKYYSSALLFFQYAPLDSFTVEERVHWAYDLGVASIVAETIFNFGEILEYDIMQSLKSEKLQWLLELLEAFKYGSIEKFNQVSNDHMSYYFVL | failed
21 | MFEGQPKGLYALALANTGERFGYYTMLAIFTLFLQAKFGYTAAETSTIFGCFLAAVYFIPFFGGILADKFGYGKMVTMGIVVMFIGYALLAIPTSDNSGKIMMFGALALIACGTGLFKGNLQVMVGNLYDAPEYSSKRDTAFSIFYMAINIGAMYAPTAATKVTNYMLGKAGLSYVPQIPSLAHQYLDGTITPANQATLESLQAAQNFTGDIATFCTTYIDKLSEAYNYGFGVACVSLIISMLIYVAFRSTFKHADYNSKQAKPANVVEEKLTPEQTKQRIVALLLVFAVVIFFWMAFHQNGLTLTFFARDYTAQEVTGLDRLGFNIVNLTFLLIVIYGLFSLFQGKTGKSKTIAGVVVMVALLCLGWSYTSMDPTINILPQIFQQFNPFFVIALTPVSLAVFGYLARKGKEPSAPRKIGIGMMIAVCGFLIMAIGSIGLPTPDALAASGIEKDALVSPNWLISTYLVLTFAELFLSPMGISFVSKVAPPKYKGMMMGGWFAATAIGNYLVAIIGYLWGGMQLWMVWSVLIVCCLLAALFIFSIMKKLEKVA | failed
